Measured values: US20210388105A1 (ELPISCIENCE SUZHOU BIOPHARMA, published 2021)
Changes are numbered by the printed parent chain.

B1: Antibody T895 (antibody, V domains shown)
VH: EVQLQQSGPELVKPGASVKMSCKASGYTFTDYNMHWVKQSHGRTLEWIGYIVPLNGGSTFNQKFKGRATLTVNTSSRTAYMELRSLTSEDSAAYYCARGGTRFAYWGQGTLVTVSA
VL: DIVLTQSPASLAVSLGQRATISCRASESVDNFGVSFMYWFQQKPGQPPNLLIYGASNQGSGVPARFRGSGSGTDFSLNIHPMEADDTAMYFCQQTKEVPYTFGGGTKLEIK
notes: also called 31895
B2: c34 (antibody, V domains shown)
VH: EIQVQQSGPELVKPGASVKVSCKASGYSFTDYNMYWVKQSHGKSLEWIGFIDPYNGYTSYNQKFKGKATLTIDKSSSTAFMHLNSLTSEDSAVYYCAIYGYDDAYYFDYWGQGTTLTVSS
VL: QIVLTQSPAIMSASPGEKVTITCSATSSVSYMHWFRQKPGTSPKLWIYSTSNLASGVPARFSGSGSGTSYSLTISRMAAEDAATYYCQQRITYPFTFGSGTKLEIT
notes: its making is not described; also called chimeric antibody c34
B3: Antibody 9-8B (antibody, V domains shown)
VH: QIQLVQSGPELKKPGETVKISCKASGYTFTHYGMNWVKQAPGKGLKWMGWINTYTGELTYADDFKGRFAFSLETSASTAYLQINNLKNEDTATYFCARRAYYRYDYVMDYWGQGTSVTVSS
VL: DIVMTQSQKFMSTSVGDRVSVTCKASHNVGTNVAWYQQKPGQSPKALIYSASYRYSGVPGRFTGSGSGTDFTLTISNVQSEDLAEYFCHQYNNYPYTFGGGTKLEIK
B4: hu23.H5L5 (antibody, V domains shown)
VH: QVQLVQSGAEVKKPGASVKVSCKASGYNLKDTFLHWVRQAPGQGLEWMGRIDPANGNIKYDPKFQGRVTITADTSANTAYMELISLRSEDTAVYYCANSPYYYGSGYRIFDVWGQGTTVTVSS
VL: QIVLTQSPATLSLSPGERATLSCSAFSSVNYMHWYQQKPGQAPRLLIYTTSNLASGIPTRFSGSGSGTSYTLTISSLEPEDFAVYYCQQRSTYPFTFGQGTKLEIK
notes: humanized c23
B5: c35 (antibody, V domains shown)
VH: EVRLQQSGAELVKPGASVKLSCTASGFNIEDTYVHWMKQRPEQGLEWIGRIDPAIDNSKYDPKFQGKATITAVSSSNTAYLQLSSLTSEDTAVYYCALYDGYNVYAMDYWGQGTSVTVSS
VL: DIVMTQAAFSNPVTLGTSASISCRSSKNLLHSNGITYLYWYLQRPGQSPQLLIYRASTLASGVPNRFSGSESGTDFTLRISRVEAEDVGVYYCAQLLELPHTFGGGTKLEIK
notes: its making is not described; also called chimeric antibody c35

Molecular target: T1, KW27-16 (human CD39 mutant, C-terminal EGFP) (human, UniProt P49961 1-510)
T1 construct: expressed on HEK293F cells; not shown: C-terminal EGFP fusion (vector pCMV3-GFPSpark)
T1 chain: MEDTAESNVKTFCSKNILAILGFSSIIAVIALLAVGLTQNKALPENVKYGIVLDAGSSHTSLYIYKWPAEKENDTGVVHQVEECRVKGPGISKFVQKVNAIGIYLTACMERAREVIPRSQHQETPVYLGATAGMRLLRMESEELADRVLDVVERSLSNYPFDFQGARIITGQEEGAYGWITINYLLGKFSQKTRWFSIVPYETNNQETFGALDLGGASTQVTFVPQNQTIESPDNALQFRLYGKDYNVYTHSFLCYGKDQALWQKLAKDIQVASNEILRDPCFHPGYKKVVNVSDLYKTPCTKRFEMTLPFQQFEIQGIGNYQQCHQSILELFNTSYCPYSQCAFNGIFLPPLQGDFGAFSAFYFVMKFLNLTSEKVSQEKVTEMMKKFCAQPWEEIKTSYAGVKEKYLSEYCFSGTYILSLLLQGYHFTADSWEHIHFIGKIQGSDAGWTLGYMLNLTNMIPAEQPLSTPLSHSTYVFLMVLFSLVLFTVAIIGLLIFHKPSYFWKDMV
Assay: FACS on transfected HEK293F cells, relative binding = AlexaFluor647 / GFP
Procedure: (§1) Briefly, the human CD39 mutants were generated by gene synthesis and then cloned into an expression vector pCMV3-GFPSpark. The vectors containing the validated mutated sequences were prepared and transfected into HEK293F cells. Three days post transfection, the cells were collected to testing EGFP for transgene expression. A range of dosages of antibodies (start from 100 nM, 3-folds dilution, 11 points) were tested on the 20 generated mutants and stained by AlexFluor647 labelled anti-hIgG by FACS. Antibody binding was descripted as relative binding which is derived from AlexFluor647 intensity divided by GFP intensity.

Binder | binding result
B1 | binds
B2 | no binding
B3 | binds
B4 | binds

Molecular target: T2, KW27-17 (human CD39 mutant, C-terminal EGFP) (human, UniProt P49961 1-510)
T2 construct: expressed on HEK293F cells; not shown: C-terminal EGFP fusion (vector pCMV3-GFPSpark)
T2 chain: T1 chain with A5K, A100E, A107D, Q323A, Q324A, Q327A, E331K
Assay: FACS, mutant-EGFP on HEK293F cells
Procedure: as §1

Binder | binding result
B1 | binds
B5 | binds
B2 | binds
B3 | binds
B4 | binds

Molecular target: T3, KW27-3 (human CD39 mutant, C-terminal EGFP) (human, UniProt P49961 1-510)
T3 construct: expressed on HEK293F cells; not shown: C-terminal EGFP fusion (vector pCMV3-GFPSpark)
T3 chain: T1 chain with A5K, A100E, A107D, E110A, R113T, E114A
Assay: FACS, mutant-EGFP on HEK293F cells
Procedure: as §1

Binder | binding result
B1 | binds
B5 | binds
B2 | binds
B3 | binds
B4 | binds

Molecular target: T4, KW27-4 (human CD39 mutant, C-terminal EGFP) (human, UniProt P49961 1-510)
T4 construct: expressed on HEK293F cells; not shown: C-terminal EGFP fusion (vector pCMV3-GFPSpark)
T4 chain: T1 chain with A5K, A100E, A107D, R118A, S119A, Q120K, Q122H, E123A
Assay: FACS, mutant-EGFP on HEK293F cells
Procedure: as §1

Binder | binding result
B1 | binds
B5 | binds
B2 | binds
B3 | binds
B4 | binds
